The results in this text go back to the RNAGym collection of RNA variant scans (doi:10.7554/elife.90254).

Sequences and labels used below:
B1: LINE1-full (parent)
chain: UACGUAGGUGGUUUUCCCCUGAUAGUGCUAAGGGGGCCUGGAAGUUUGGACUGGGCAGAGCUCAACACAGCGUGGCAAAGUGGCUGUGGCUAGACUGCCUCUCUGGAUUCCUCGUCACUCAGCAGGGCAUCUCUGAGAGAAAUGCC

Variants of B1 are the subject of this data set. Nature of the data set: self-cleavage, relative activity (ratio to wild type); higher = more cleavage; in vitro, sequencing; the parent is a self-cleaving ribozyme.
Take UACGUAGGUGGUUUUCCCCUGAUAGUGCUAAGGGGGCCUGGAAGUUUAGACUGGGCAGAGCUCAACACAGCGUGGCAAAGUGGCUGUGGCUAGACUGCCUCUCUGGAUUCCUCGUCACUCAGCAGGGCUUCUCUGAGAGAAAUGCC [G48A A129U]: the self-cleavage was determined as 1.13.
Consider UACGUAGGUGGUUUUCCCCUGAUAGUGCUAAGGGGGCCUGGAAGUUUUGACUGGGCAGAGCUCAACACAGCGUGGCAAAGUGGCUGUGGCUAGACUGCCUCUCUGGAUUCCUCGUCACUCGGCAGGGCAUCUCUGAGAGAAAUGCC [G48U A121G], for which the self-cleavage was found to be 0.99.
Then UACGUAGGUGGUUUUCCCCUGAUAGUGCUAAGGGGGCCUGGAAGUUUGAACUGGGCAGGGCUCAACACAGCGUGGCAAAGUGGCUGUGGCUAGACUGCCUCUCUGGAUUCCUCGUCACUCAGCAGGGCAUCUCUGAGAGAAAUGCC [G49A A59G], with 0.02; and UACGUAGGUGGUUUUCCCCUGAUAGUGCUAAGGGGGCCUGGAAGUUUCGACUGGGCAGAGCUCAACACAGCGUGGCAAAGUGGCUGUGGCUAGACUGCCUCUCUGGAUUCCUCGUCACUCAGCAGGGCAUCUCUGAGAGAAAUGCC [G48C], with 1.01.
Then UACGUAGGUGGUUUUCCCCUGAUAGUGCUAAGGGGGCCUGGAAGUUUUGACUGGGCAGAGCUCAACACAGCGUGGCAAAGUGGCUGUGGCUAGACUGCCUCUCUGGAUUCCUCGUCACUCAGCAGGGCAUCUCUGAGAGAAAUGCC [G48U], with 0.94; and UACGUAGGUGGUUUUCCCCUGAUAGUGCUAAGGGGGCCUGGAAGUUUAGACUGGGCAGAGCACAACACAGCGUGGCAAAGUGGCUGUGGCUAGACUGCCUCUCUGGAUUCCUCGUCACUCAGCAGGGCAUCUCUGAGAGAAAUGCC [G48A U62A], with 0.02; and UACGUAGGUGGUUUUCCCCUGAUAGUGCUAAGGGGGCCUGGAAGUUUGAACUGGGCAGAGCUCAACGCAGCGUGGCAAAGUGGCUGUGGCUAGACUGCCUCUCUGGAUUCCUCGUCACUCAGCAGGGCAUCUCUGAGAGAAAUGCC [G49A A67G], with 0.56.
Take UACGUAGGUGGUUUUCCCCUGAUAGUGCUAAGGGGGCCUGGAAGUUUUGACUGGGCAGAGCUCAACACAGCGUGGCAAAGUGGCUGUGGCUAGACUGCCUCUCUGGAUUCCUCGUCACUCAGCAAGGCAUCUCUGAGAGAAAUGCC [G48U G125A]: the self-cleavage came out at 1.17.
The figure for UACGUAGGUGGUUUUCCCCUGAUAGUGCUAAGGGGGCCUGGAAGUUUCGACUGGGCAGAGCUCAACACAGCGUGGCAAAGUGGCUGUGGCUAGACUGCCUCUCUGGAUUCCUCGUCACUCAGCAGGGCAUCUCUGAGAGAAGUGCC [G48C A142G] is 1.38; for UACGUAGGUGGUUUUCCCCUGAUAGUGCUAAGGGGGCCUGGAAGUUUAGACUGGGCAGAGCUCAACACAGCGUGGCAAAGUGGCUGCGGCUAGACUGCCUCUCUGGAUUCCUCGUCACUCAGCAGGGCAUCUCUGAGAGAAAUGCC [G48A U87C] it is 0.12; for UACGUAGGUGGUUUUCCCCUGAUAGUGCUAAGGGGGCCUGGAAGUUUAGACUGGGCAGAGCUCAACACAGCGUGGCAAAGUGGCUGUGGCUAGACUGCCUCACUGGAUUCCUCGUCACUCAGCAGGGCAUCUCUGAGAGAAAUGCC [G48A U102A] it is 1.71.
On to UACGUAGGUGGUUUUCCCCUGAUAGUGCUAAGGGGGCCUGGAAGUUUUGACAGGGCAGAGCUCAACACAGCGUGGCAAAGUGGCUGUGGCUAGACUGCCUCUCUGGAUUCCUCGUCACUCAGCAGGGCAUCUCUGAGAGAAAUGCC [G48U U52A], for which the self-cleavage was 0.81.
The figure for UACGUAGGUGGUUUUCCCCUGAUAGUGCUAAGGGGGCCUGGAAGUUUUGACUGGGCAGAGCUCAACACAGCGUGGCAAAGUGGCUGUGGCUAGACUGCCUCCCUGGAUUCCUCGUCACUCAGCAGGGCAUCUCUGAGAGAAAUGCC [G48U U102C] is 1.43; for UACGUAGGUGGUUUUCCCCUGAUAGUGCUAAGGGGGCCUGGAAGUUUAGACUGGGCAGAGCUCAACACAGCGUGGCAAAGUGGCUGUGGCUAGACUGCCUCUCUGGAUUCCACGUCACUCAGCAGGGCAUCUCUGAGAGAAAUGCC [G48A U112A] it is 0.83; for UACGUAGGUGGUUUUCCCCUGAUAGUGCUAAGGGGGCCUGGAAGUUUAGACUGGGCAGAGCUCAACACAGCGUGGCAAAGUGGCUGUGGCUAGACUGCCUCUCUGGAUUCCCCGUCACUCAGCAGGGCAUCUCUGAGAGAAAUGCC [G48A U112C] it is 1.45.
Then UACGUAGGUGGUUUUCCCCUGAUAGUGCUAAGGGGGCCUGGAAGUUUAGACUGGGCAGAGCUCAACACAGCGUGGCAAAGUGGCUGUGGCUAGACUGCCUCUCUGGAUUCCUCGUCACUCAGCAGGGCACCUCUGAGAGAAAUGCC [G48A U130C], with 1.53; and UACGUAGGUGGUUUUCCCCUGAUAGUGCUAAGGGGGCCUGGAAGUUUUGACUGGGCAGAGCUCAACACAGCGUGGCAAAGUGGCUGUGGCUAGACUGCCUCUCUGGAUACCUCGUCACUCAGCAGGGCAUCUCUGAGAGAAAUGCC [G48U U109A], with 1.42; and UACGUAGGUGGUUUUCCCCUGAUAGUGCUAAGGGGGCCUGGAAGUUUAGACUGGGCAGAGCUCAACACAGCAUGGCAAAGUGGCUGUGGCUAGACUGCCUCUCUGGAUUCCUCGUCACUCAGCAGGGCAUCUCUGAGAGAAAUGCC [G48A G72A], with 0.96.
The figure for UACGUAGGUGGUUUUCCCCUGAUAGUGCUAAGGGGGCCUGGAAGUUUAGACUGGGCAGAGCUCAACACAGCGUGGCAAAGUGGCUGUGGCCAGACUGCCUCUCUGGAUUCCUCGUCACUCAGCAGGGCAUCUCUGAGAGAAAUGCC [G48A U91C] is 0.09.
On to UACGUAGGUGGUUUUCCCCUGAUAGUGCUAAGGGGGCCUGGAAGUUUGAACUGGGCAGAGCUCUACACAGCGUGGCAAAGUGGCUGUGGCUAGACUGCCUCUCUGGAUUCCUCGUCACUCAGCAGGGCAUCUCUGAGAGAAAUGCC [G49A A64U], for which the self-cleavage was found to be 0.33.
For UACGUAGGUGGUUUUCCCCUGAUAGUGCUAAGGGGGCCUGGAAGUUUGAACUGGGCAGAGCUCAACACGGCGUGGCAAAGUGGCUGUGGCUAGACUGCCUCUCUGGAUUCCUCGUCACUCAGCAGGGCAUCUCUGAGAGAAAUGCC [G49A A69G], the self-cleavage turned out to be 0.36.
The figure for UACGUAGGUGGUUUUCCCCUGAUAGUGCUAAGGGGGCCUGGAAGUUUUGACUGGGCAGAGCUCAACACAGCGUGGCAAAGUGGCUGUGGCUAGACUGCCUCUCUGGAUUCCUCGUCACUCAGCAGGGCAUCCCUGAGAGAAAUGCC [G48U U132C] is 1.12; for UACGUAGGUGGUUUUCCCCUGAUAGUGCUAAGGGGGCCUGGAAGUUUAGACUGGGCAGAGCUCAACACAGCGUGGCAAAGUGGCUGUGGCUAGACUGCCUCUCUGGAUUCCUCGUCACUCAGCUGGGCAUCUCUGAGAGAAAUGCC [G48A A124U] it is 1.02.
On to UACGUAGGUGGUUUUCCCCUGAUAGUGCUAAGGGGGCCUGGAAGUUUGAGCUGGGCAGAGCUCAACACAGCGUGGCAAAGUGGCUGUGGCUAGACUGCCUCUCUGGAUUCCUCGUCACUCAGCAGGGCAUCUCUGAGAGAAAUGCC [G49A A50G], for which the self-cleavage is 0.82.
Consider UACGUAGGUGGUUUUCCCCUGAUAGUGCUAAGGGGGCCUGGAAGUUUUGACUGGGCAGAGCUCAACACAGCGUGGCAAAGUGGCUGUGGCUAGACUGCCUCUCUGGAUUCCUCGUCACUCAGCAGGGCAUCUCUGGGAGAAAUGCC [G48U A136G], for which the self-cleavage stood at 1.19.
Then UACGUAGGUGGUUUUCCCCUGAUAGUGCUAAGGGGGCCUGGAAGUUUAGACUGGGCAGAGCUCAACACAGCGUGGCAAAGUGGCUGUGGCUAGACUGCCUCUCUGGAUUCCUCGUCACUCAGCAGGGCAUCUCUGAGAGUAAUGCC [G48A A140U], with 1.28.
As for UACGUAGGUGGUUUUCCCCUGAUAGUGCUAAGGGGGCCUGGAAGUUUGAACUGGGCAGAGCUCAACACAGCGUGGCAAAGUGGCUGUGGCUAGACUGCCUCUCUGGAUUCCUCGUCACUCAGCAGGGCAUCUCUGAGAGAAAUGCC [G49A], the self-cleavage is 1.
The figure for UACGUAGGUGGUUUUCCCCUGAUAGUGCUAAGGGGGCCUGGAAGUUUAGACUGGGCAGAGCUCAACACAGCGUGGCAAAGUGGCUGUGGCUAGACUGCCUCUCUGGAUACCUCGUCACUCAGCAGGGCAUCUCUGAGAGAAAUGCC [G48A U109A] is 2.18.
For UACGUAGGUGGUUUUCCCCUGAUAGUGCUAAGGGGGCCUGGAAGUUUGAACUGGGCAGAGCUCAUCACAGCGUGGCAAAGUGGCUGUGGCUAGACUGCCUCUCUGGAUUCCUCGUCACUCAGCAGGGCAUCUCUGAGAGAAAUGCC [G49A A65U], the self-cleavage turned out to be 0.04.
Then UACGUAGGUGGUUUUCCCCUGAUAGUGCUAAGGGGGCCUGGAAGUUUUGACUGGGCAGAGCUCAACACAGCGUGGCAAAGUGGCUGUGGCUAGACUGCCUCUCUGGAUUCCUCGUCACCCAGCAGGGCAUCUCUGAGAGAAAUGCC [G48U U119C], with 1.95; and UACGUAGGUGGUUUUCCCCUGAUAGUGCUAAGGGGGCCUGGAAGUUUAGACUGGGCAGAGCUCAACACAGCGUGGCAAAGUGGCCGUGGCUAGACUGCCUCUCUGGAUUCCUCGUCACUCAGCAGGGCAUCUCUGAGAGAAAUGCC [G48A U85C], with 0.1; and UACGUAGGUGGUUUUCCCCUGAUAGUGCUAAGGGGGCCUGGAAGUUUAGACUGGGCAGAGCUCAACACAGCGUGGCAAAGUGGCAGUGGCUAGACUGCCUCUCUGGAUUCCUCGUCACUCAGCAGGGCAUCUCUGAGAGAAAUGCC [G48A U85A], with 0.05.
The figure for UACGUAGGUGGUUUUCCCCUGAUAGUGCUAAGGGGGCCUGGAAGUUUUGACUGGGCAGAGCUCAACACAGCGUGGCAAAGUGGCUGUGGCUAGACUGCCUCUCUGGACUCCUCGUCACUCAGCAGGGCAUCUCUGAGAGAAAUGCC [G48U U108C] is 1.27; for UACGUAGGUGGUUUUCCCCUGAUAGUGCUAAGGGGGCCUGGAAGUUUAGACUGGGCAGAGCUCAACACAGCGAGGCAAAGUGGCUGUGGCUAGACUGCCUCUCUGGAUUCCUCGUCACUCAGCAGGGCAUCUCUGAGAGAAAUGCC [G48A U73A] it is 1.36.
With UACGUAGGUGGUUUUCCCCUGAUAGUGCUAAGGGGGCCUGGAAGUUUAGACUGGGCAGAGCUCAACACAGCGUGGCAAAGUGGCUGUGGCUAGACUGCCCCUCUGGAUUCCUCGUCACUCAGCAGGGCAUCUCUGAGAGAAAUGCC [G48A U100C], the self-cleavage was found to be 1.9.
Then UACGUAGGUGGUUUUCCCCUGAUAGUGCUAAGGGGGCCUGGAAGUUUAGACUGGGCAGAGCUCAACACAGCGUGGCAAAGCGGCUGUGGCUAGACUGCCUCUCUGGAUUCCUCGUCACUCAGCAGGGCAUCUCUGAGAGAAAUGCC [G48A U81C], with 1.14; and UACGUAGGUGGUUUUCCCCUGAUAGUGCUAAGGGGGCCUGGAAGUUUUGACUGGGCAGAGCUCAACACAGCGUGGCAAAGUGGCUGUGGCUAGACUGCCUCUCUGGAUUCCUCGUCACUCAGCAGGGCAUCUCCGAGAGAAAUGCC [G48U U134C], with 1.14; and UACGUAGGUGGUUUUCCCCUGAUAGUGCUAAGGGGGCCUGGAAGUUUAGACAGGGCAGAGCUCAACACAGCGUGGCAAAGUGGCUGUGGCUAGACUGCCUCUCUGGAUUCCUCGUCACUCAGCAGGGCAUCUCUGAGAGAAAUGCC [G48A U52A], with 1.22.
As for UACGUAGGUGGUUUUCCCCUGAUAGUGCUAAGGGGGCCUGGAAGUUUAGACUGGUCAGAGCUCAACACAGCGUGGCAAAGUGGCUGUGGCUAGACUGCCUCUCUGGAUUCCUCGUCACUCAGCAGGGCAUCUCUGAGAGAAAUGCC [G48A G55U], the self-cleavage stood at 0.19.
